Data reported in the supplement of paper PMC7877785.
± gives the uncertainty stated by the source.

Assay: self-splicing fitness, log relative to wild type (ln ratio); higher = more splicing; Tetrahymena group I intron in knt gene, E. coli kanamycin selection, DiMSum; sequences stand for … in CUCUCU…GGAGGGAAAAGUUAUCAGGCAUGCACCUGGUAGCUAGUCUUUAAACCAAUAGAUUGCAUCGGUUUAAAAGGCAAGACCGUCAAAUUGCGGGAAAGGGGUCAACAGCCGUUCAGUACCAAGUCUCAGGGGAAACUUUGAGAUGGCCUUGCAAAGGGUAUGGUAAUAAGCUGACGGACAUGGUCCUAACCACGCAGCCAAGUCCUAAGUCAACAGAUCUUCUGUUGAUAUGGAUGCAGUUCACAGACUAAAUGUCGGUCGGGGAAGAUGUAUUCUUCUCAUAAGAUAUAGUCGGACCUCUCCUUAAUGGGAGCUAGCGGAUGAAGUGAUGCAACACUGGAGCCGCUGGGAACUAAUUUGUAUGCGAAAGUAUAUUGAUUAGUUUUGGAGUACUCGUGGUCG
Method in brief: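 Fitness was computed with DiMSum as the error-weighted combination of replicate fold changes, kanamycin versus none, each normalised to wild type. The library randomised all eight intron nucleotides of the P1ex region, with the intron placed in the knt kanamycin-resistance gene on pET-22b(+) in E. coli BL21(DE3). Six replicate transformations were grown overnight at 37°C or 30°C on LB agar with or without 25 μg/mL kanamycin, plus 100 μg/mL carbenicillin, 50 μM IPTG and 0.2% rhamnose. Pooled colonies were amplicon-sequenced on an Illumina HiSeq 2500.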

Sequence	self-splicing fitness (ln) (37 °C)	self-splicing fitness (ln) (30 °C)
CCGGAGCAAUAUUACGGCGC	-0.565 ± 0.49	–
GCCAAGCAAUAUUACGUCAU	-2.59 ± 0.18	-2.96 ± 0.22
UCUCAGCAAUAUUACGAUUC	-1.94 ± 0.27	-2.66 ± 0.28
GACGAGCAAUAUUACGUGUC	-2.74 ± 0.28	–
CGGCAGCAAUAUUACGCGUU	-2.75 ± 0.18	-4.11 ± 0.2
GUCGAGCAAUAUUACGGGGA	-1.39 ± 0.24	-2.91 ± 0.3
GUAAAGCAAUAUUACGUUAC	-1.91 ± 0.21	-1.15 ± 0.14
CCGAAGCAAUAUUACGCCCA	–	-2.41 ± 0.42
GGUCAGCAAUAUUACGGAAA	-0.845 ± 0.11	-1.22 ± 0.11
UGCCAGCAAUAUUACGACCU	-1.34 ± 0.17	-2.35 ± 0.19
UGAAAGCAAUAUUACGUAGA	-1.56 ± 0.15	-1.88 ± 0.097
CCUCAGCAAUAUUACGUACG	-0.131 ± 0.084	-1.32 ± 0.069
CUAAAGCAAUAUUACGUUGC	-2.45 ± 0.22	-3.49 ± 0.18
GGCAAGCAAUAUUACGGAAC	0.485 ± 0.21	-1.46 ± 0.13
ACACAGCAAUAUUACGGUGG	-1.67 ± 0.099	-2.44 ± 0.08
GGGAAGCAAUAUUACGGGCU	-0.846 ± 0.12	-0.942 ± 0.12
CCAGAGCAAUAUUACGGUCU	-2.31 ± 0.23	-4.02 ± 0.18
GAGGAGCAAUAUUACGGUGG	–	-2.76 ± 0.2
CUGGAGCAAUAUUACGUUUA	-3.28 ± 0.22	-3.17 ± 0.18
CGGAAGCAAUAUUACGCAAC	–	-1.88 ± 0.29
UUGAAGCAAUAUUACGGCCU	-0.147 ± 0.16	-0.822 ± 0.13
AUCAAGCAAUAUUACGUAGC	-2.1 ± 0.31	-4.82 ± 0.45
CCAAAGCAAUAUUACGUCCC	-1.59 ± 0.27	-3.62 ± 0.35
CACCAGCAAUAUUACGAGCC	-2.92 ± 0.32	-3.37 ± 0.27
UGGCAGCAAUAUUACGUCCA	-0.471 ± 0.16	-1.23 ± 0.12
GCACAGCAAUAUUACGUGUU	-2.07 ± 0.085	-3.75 ± 0.089

Sequence	self-splicing fitness (ln) (37 °C)	self-splicing fitness (ln) (30 °C)
GUACAGCAAUAUUACGUCAU	-1.13 ± 0.11	-1.7 ± 0.09
GAAAAGCAAUAUUACGCCAC	-2.7 ± 0.36	-5.15 ± 0.38
UUACAGCAAUAUUACGCUUC	-2.99 ± 0.47	-3.13 ± 0.37
AAGGAGCAAUAUUACGCGCC	-1.19 ± 0.17	-2.85 ± 0.24
CUAUAGCAAUAUUACGACCU	–	-2.85 ± 0.42
ACACAGCAAUAUUACGAGCG	-0.104 ± 0.088	-0.734 ± 0.074
UCCUAGCAAUAUUACGAUGU	-0.553 ± 0.079	-1.49 ± 0.06
CUCGAGCAAUAUUACGACGA	-1.26 ± 0.29	-2.5 ± 0.24
GCCUAGCAAUAUUACGACUC	0.0998 ± 0.17	-0.376 ± 0.14
AGUAAGCAAUAUUACGCGCA	0.0785 ± 0.16	-1.02 ± 0.16
GCGUAGCAAUAUUACGAUUC	-0.0224 ± 0.11	-0.141 ± 0.098
GUUUAGCAAUAUUACGGGGA	-1.41 ± 0.22	-3.57 ± 0.37
GUGCAGCAAUAUUACGUGGG	-2.01 ± 0.11	-2.86 ± 0.11
GGGGAGCAAUAUUACGUCUA	-2.6 ± 0.37	–
AUGCAGCAAUAUUACGCUUC	-3.07 ± 0.34	-4.78 ± 0.34
ACGCAGCAAUAUUACGGCAA	-0.421 ± 0.084	-0.804 ± 0.078
GCGCAGCAAUAUUACGGGGU	-2.31 ± 0.13	-2.94 ± 0.096
AACUAGCAAUAUUACGGUGA	-0.833 ± 0.099	-1.58 ± 0.073
UGCAAGCAAUAUUACGGACA	-0.0695 ± 0.16	-0.633 ± 0.12
UAGUAGCAAUAUUACGAAAU	–	-2.89 ± 0.33
AUUGAGCAAUAUUACGGUUC	-2.16 ± 0.25	-3.69 ± 0.33
CACGAGCAAUAUUACGGGAC	-2.55 ± 0.23	-3.36 ± 0.2
UGCUAGCAAUAUUACGGAGU	-2.34 ± 0.24	-4.11 ± 0.3
GUAUAGCAAUAUUACGACAA	-1.34 ± 0.3	-0.741 ± 0.27
CAUCAGCAAUAUUACGCGUG	-2.16 ± 0.092	-3.13 ± 0.095
CCUUAGCAAUAUUACGUGCC	-2.41 ± 0.28	-4.23 ± 0.25

Sequence	self-splicing fitness (ln) (37 °C)	self-splicing fitness (ln) (30 °C)
CAAAAGCAAUAUUACGAAAU	-2.89 ± 0.23	-3.75 ± 0.17
UCUAAGCAAUAUUACGCGUG	-1.15 ± 0.11	-1.43 ± 0.087
UUCGAGCAAUAUUACGGAUU	-3.1 ± 0.29	-3.84 ± 0.23
CGACAGCAAUAUUACGGCCU	-0.3 ± 0.14	-1.57 ± 0.13
UUAAAGCAAUAUUACGAUCC	-0.49 ± 0.24	-1.64 ± 0.18
GUGGAGCAAUAUUACGGCGA	-1.43 ± 0.23	-0.352 ± 0.17
UUGCAGCAAUAUUACGGAAG	-0.414 ± 0.14	-3.02 ± 0.34
CAUAAGCAAUAUUACGUCGG	-0.568 ± 0.087	-0.598 ± 0.061
ACGCAGCAAUAUUACGACGU	-0.828 ± 0.097	-3.11 ± 0.1
AAUAAGCAAUAUUACGGUCG	-0.232 ± 0.12	-1.03 ± 0.098
GAGGAGCAAUAUUACGUCGU	-2.14 ± 0.34	-0.318 ± 0.28
GGAUAGCAAUAUUACGAACG	-0.196 ± 0.18	0.209 ± 0.14
AGAUAGCAAUAUUACGGAAC	-0.911 ± 0.3	–
GCCGAGCAAUAUUACGCCGG	-2.08 ± 0.38	-3.21 ± 0.3
GAGCAGCAAUAUUACGUUAG	-1.93 ± 0.19	-2.57 ± 0.16
CAGCAGCAAUAUUACGCGAU	-1.83 ± 0.17	-3.91 ± 0.22
AAUGAGCAAUAUUACGUGCA	-0.932 ± 0.14	-2.95 ± 0.22
UUCCAGCAAUAUUACGUAGA	-0.502 ± 0.093	-0.592 ± 0.076
CUAUAGCAAUAUUACGAACC	–	-2.11 ± 0.49
CCUCAGCAAUAUUACGUCGC	-3.77 ± 0.36	–
CGGCAGCAAUAUUACGGAUA	-2.39 ± 0.18	-3.38 ± 0.22
CAACAGCAAUAUUACGACAC	-1.79 ± 0.18	-2.93 ± 0.18
UUUUAGCAAUAUUACGCAGG	-1.03 ± 0.16	-1.33 ± 0.12
GACCAGCAAUAUUACGCCAA	-1.45 ± 0.15	-2.99 ± 0.22
GACAAGCAAUAUUACGAUAG	-0.828 ± 0.12	-2.76 ± 0.22
AUCCAGCAAUAUUACGAGGU	-2.65 ± 0.22	-3.37 ± 0.23
